According to patent US7393946:

Tested on: ORCA-3 (Catharanthus roseus)
Experiment: cell_activity
Settings: GUS/CAT, C. roseus cells

Chain of ORCA-3 (Catharanthus roseus) (chain, as listed by the source): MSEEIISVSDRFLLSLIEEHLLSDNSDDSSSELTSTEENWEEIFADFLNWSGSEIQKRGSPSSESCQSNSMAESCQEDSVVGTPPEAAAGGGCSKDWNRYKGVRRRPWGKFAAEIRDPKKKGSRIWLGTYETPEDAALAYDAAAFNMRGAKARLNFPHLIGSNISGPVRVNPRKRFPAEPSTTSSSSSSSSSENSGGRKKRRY

Substance: Str1 NH promoter (-202 to -1)
- activity (fold activation): 5
